Earlier results in US20200378979.

Tests used:
thrombin (cited work) [1] = target: T1, thrombin (cited work) (UniProt P00734+P00734); assay: FP; conditions: 5'-FAM; CITED Van Riesen et al. 2018
thrombin (cited work) [2] = target: T1, thrombin (cited work); assay: ITC; conditions: CITED Pagano et al. 2008

| Sequence | Kd (thrombin (cited work) [1]) [µM] | Kd (thrombin (cited work) [2]) [nM] |
| --- | --- | --- |
| GGTTGGTGTGGTTGG [5'-FAM-TBA] | 4.9 | – |
| GGTTGGTGTGGTTGG [native TBA] | – | 330 |
